This is an account of results in the supplement of paper PMC7877785.

This data set can be described thus: self-splicing fitness, log relative to wild type (ln ratio); higher = more splicing; Tetrahymena group I intron in knt gene, E. coli kanamycin selection, DiMSum; sequences stand for … in CUCUCU…GGAGGGAAAAGUUAUCAGGCAUGCACCUGGUAGCUAGUCUUUAAACCAAUAGAUUGCAUCGGUUUAAAAGGCAAGACCGUCAAAUUGCGGGAAAGGGGUCAACAGCCGUUCAGUACCAAGUCUCAGGGGAAACUUUGAGAUGGCCUUGCAAAGGGUAUGGUAAUAAGCUGACGGACAUGGUCCUAACCACGCAGCCAAGUCCUAAGUCAACAGAUCUUCUGUUGAUAUGGAUGCAGUUCACAGACUAAAUGUCGGUCGGGGAAGAUGUAUUCUUCUCAUAAGAUAUAGUCGGACCUCUCCUUAAUGGGAGCUAGCGGAUGAAGUGAUGCAACACUGGAGCCGCUGGGAACUAAUUUGUAUGCGAAAGUAUAUUGAUUAGUUUUGGAGUACUCGUGGUCG
In short, it runs like this:
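Library with all eight P1ex-region intron nucleotides randomised, intron inside the knt kanamycin-resistance gene on pET-22b(+), in E. coli BL21(DE3). Cells grew overnight at 37°C or 30°C on LB agar with or without 25 μg/mL kanamycin (plus 100 μg/mL carbenicillin, 50 μM IPTG, 0.2% rhamnose), in six replicate transformations. Pooled colonies were amplicon-sequenced on Illumina HiSeq 2500. DiMSum fitness is the error-weighted combination of wild-type-normalised replicate fold changes, kanamycin versus none.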

± gives the uncertainty stated by the source.

Regarding CCAAAGCAAUAUUACGUUAC, the “self-splicing fitness (ln)” value by setting is: (30 °C) -3.75 ± 0.22; (37 °C) -3.75 ± 0.36.

As for UGGUAGCAAUAUUACGUUAU, the “self-splicing fitness (ln)” value by setting is: (30 °C) -3.29 ± 0.28; (37 °C) -3.33 ± 0.31.

As to CGCGAGCAAUAUUACGGCGG, the “self-splicing fitness (ln)” value is -1.64 ± 0.12 (30 °C) and -0.636 ± 0.17 (37 °C).

On to AGAAAGCAAUAUUACGAAUC, for which the “self-splicing fitness (ln)” value was -3 ± 0.26 (30 °C) and -2.39 ± 0.24 (37 °C).

Turning to GCGUAGCAAUAUUACGGGAG, the “self-splicing fitness (ln)” value (37 °C) was -2.28 ± 0.35.

For the sequence CAUGAGCAAUAUUACGGACA, the “self-splicing fitness (ln)” value is, setting by setting: (30 °C) -3.32 ± 0.48; (37 °C) -0.812 ± 0.25.

CUCCAGCAAUAUUACGACGG: the “self-splicing fitness (ln)” value is -3.56 ± 0.23 (30 °C) and -2.42 ± 0.24 (37 °C).

In the case of CUGGAGCAAUAUUACGAAAA, the “self-splicing fitness (ln)” value was -2.86 ± 0.25 (30 °C) and -1.6 ± 0.22 (37 °C).

Regarding CUAGAGCAAUAUUACGUAGG, the “self-splicing fitness (ln)” value was -1.04 ± 0.1 (30 °C) and 1 ± 0.14 (37 °C).

Turning to CUACAGCAAUAUUACGGAGU, the “self-splicing fitness (ln)” value was -3.21 ± 0.13 (30 °C) and -2.89 ± 0.16 (37 °C).

Turning to CACUAGCAAUAUUACGAACA, the “self-splicing fitness (ln)” value is -3.04 ± 0.42 (30 °C) and -2.83 ± 0.3 (37 °C).

In the case of GAGCAGCAAUAUUACGCCGA, the “self-splicing fitness (ln)” value by setting is: (30 °C) -1.55 ± 0.17; (37 °C) -0.726 ± 0.18.

Consider UGGUAGCAAUAUUACGAGUC, for which, where the note is “37 °C”, the “self-splicing fitness (ln)” value was -2.29 ± 0.32.

As to UCAAAGCAAUAUUACGGGUU, the “self-splicing fitness (ln)” value (30 °C) was -3.13 ± 0.15 and the “self-splicing fitness (ln)” value (37 °C) was -2.59 ± 0.15.

Turning to CAGUAGCAAUAUUACGGAAG, the “self-splicing fitness (ln)” value reads like this: (30 °C) -1.9 ± 0.15; (37 °C) -0.317 ± 0.14.

Take AAUCAGCAAUAUUACGAAAG: the “self-splicing fitness (ln)” value by setting is: (30 °C) -1.78 ± 0.12; (37 °C) -0.272 ± 0.13.

On to UUAUAGCAAUAUUACGCGCC, for which the “self-splicing fitness (ln)” value by setting is: (30 °C) -1.96 ± 0.23; (37 °C) -2.14 ± 0.3.

In the case of AACCAGCAAUAUUACGGCUG, the “self-splicing fitness (ln)” value reads like this: (30 °C) -3.63 ± 0.14; (37 °C) -3.05 ± 0.16.

Turning to UCAGAGCAAUAUUACGUGCC, the “self-splicing fitness (ln)” value (30 °C) is -2.62 ± 0.41.

As for CCCCAGCAAUAUUACGUCCC, the “self-splicing fitness (ln)” value (30 °C) was -2.21 ± 0.36.

In the case of AGCGAGCAAUAUUACGGGAG, the “self-splicing fitness (ln)” value is, setting by setting: (30 °C) -2.82 ± 0.2; (37 °C) -2 ± 0.29.

In the case of GCCAAGCAAUAUUACGUUAG, the “self-splicing fitness (ln)” value is -1.93 ± 0.12 (30 °C) and -2.64 ± 0.2 (37 °C).

Regarding GUUGAGCAAUAUUACGUUGU, the “self-splicing fitness (ln)” value was -3.09 ± 0.23 (30 °C) and -1.68 ± 0.17 (37 °C).

Turning to UGAAAGCAAUAUUACGUUAA, the “self-splicing fitness (ln)” value is, setting by setting: (30 °C) -1.45 ± 0.089; (37 °C) -0.938 ± 0.09.

Regarding UCACAGCAAUAUUACGAAUA, the “self-splicing fitness (ln)” value runs as follows: (30 °C) -2.68 ± 0.14; (37 °C) -1.44 ± 0.11.

For GCAGAGCAAUAUUACGGGAG, the “self-splicing fitness (ln)” value is -2.81 ± 0.21 (30 °C) and -2.81 ± 0.32 (37 °C).

Take ACACAGCAAUAUUACGUAGA: the “self-splicing fitness (ln)” value is, setting by setting: (30 °C) -3.64 ± 0.16; (37 °C) -1.38 ± 0.11.

Regarding UCAGAGCAAUAUUACGCCAG, the “self-splicing fitness (ln)” value (30 °C) is -2.62 ± 0.3 and the “self-splicing fitness (ln)” value (37 °C) was -0.0811 ± 0.28.

For CGUCAGCAAUAUUACGGGGG, the “self-splicing fitness (ln)” value by setting is: (30 °C) -3.62 ± 0.2; (37 °C) -2.05 ± 0.14.

For UUUGAGCAAUAUUACGGAGG, the “self-splicing fitness (ln)” value is -3.18 ± 0.32 (30 °C) and -2.33 ± 0.46 (37 °C).

Consider GAUGAGCAAUAUUACGUAAU, for which the “self-splicing fitness (ln)” value is, setting by setting: (30 °C) -2.8 ± 0.23; (37 °C) -1.55 ± 0.28.

On to CCAGAGCAAUAUUACGUGGU, for which the “self-splicing fitness (ln)” value is, setting by setting: (30 °C) -2.75 ± 0.12; (37 °C) -2.96 ± 0.21.

With GCAAAGCAAUAUUACGAAUC, the “self-splicing fitness (ln)” value by setting is: (30 °C) -1.68 ± 0.12; (37 °C) -0.115 ± 0.13.

On to CGUAAGCAAUAUUACGCGAG, for which the “self-splicing fitness (ln)” value runs as follows: (30 °C) -1.63 ± 0.2; (37 °C) -2.56 ± 0.44.

Consider UUCAAGCAAUAUUACGGUAA, for which the “self-splicing fitness (ln)” value is -0.679 ± 0.097 (30 °C) and 0.0151 ± 0.1 (37 °C).

In the case of CCUGAGCAAUAUUACGGCCU, the “self-splicing fitness (ln)” value is, setting by setting: (30 °C) -2.68 ± 0.17; (37 °C) -2.96 ± 0.3.

UCAGAGCAAUAUUACGUAUG: the “self-splicing fitness (ln)” value was -2.12 ± 0.23 (30 °C) and -2.37 ± 0.31 (37 °C).

Consider AACUAGCAAUAUUACGAUGG, for which the “self-splicing fitness (ln)” value by setting is: (30 °C) -2.49 ± 0.17; (37 °C) -0.739 ± 0.14.

As for AUUUAGCAAUAUUACGAUAU, the “self-splicing fitness (ln)” value reads like this: (30 °C) -1.34 ± 0.097; (37 °C) -0.998 ± 0.11.
